Test [1] deals with T1, IHF from Klebsiella pneumoniae (Kp) (Klebsiella pneumoniae).
T1 construct: Recombinant, His-tagged, made in HEK293 cells; also called IHF (Kp)
The experiment in a line: ELISA. For orientation: An ELISA detects its analyte on a solid surface through an enzyme-linked reagent.

Test [2] has as its target T2, IHF from Haemophilus influenzae (Hi) (Haemophilus influenzae).
T2 chain: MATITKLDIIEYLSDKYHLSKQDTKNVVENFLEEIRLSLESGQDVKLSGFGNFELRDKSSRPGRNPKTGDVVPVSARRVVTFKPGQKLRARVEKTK
The test can be described thus: ELISA.

Test [3] has as its target T1, IHF from Klebsiella pneumoniae (Kp). The test can be described thus: ForteBio Octet QK biosensor (BLI), ratio of on and off rates. (In BLI a coated tip is dipped into the sample, and binding shifts an interference pattern.)
Test [4] addresses T2, IHF from Haemophilus influenzae (Hi). The description is as above.

T1 sequence (A6TAI1 whole entry, chain 1 of 2): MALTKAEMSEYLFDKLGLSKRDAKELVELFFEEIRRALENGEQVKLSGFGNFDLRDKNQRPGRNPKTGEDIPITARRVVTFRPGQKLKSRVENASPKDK
T1 sequence (A6T704 whole entry, chain 2 of 2, further chain): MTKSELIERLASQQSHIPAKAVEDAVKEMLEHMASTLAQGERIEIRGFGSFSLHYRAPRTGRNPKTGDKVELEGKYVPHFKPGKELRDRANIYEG

B1: TRL1215 (antibody, V domains shown)
VH: QVQLVESGTEVKNPGASVKVSCTASGYKFDEYGVSWVRQSPGQGLEWMGWISVYNGKTNYSQNFQGRLTLTTETSTDTAYMELTSLRPDDTAVYYCATDKNWFDPWGPGTLVTVSS
VL: DIVMTQSPSASGSPGQSITISCTGTNTDYNYVSWYQHHPGKAPKVIIYDVKKRPSGVPSRFSGSRSGNTATLTVSGLQTEDEADYYCVSYADNNHYVFGSGTKVTVL
With B1, the OD in test [1] came out at 1.6 OD; in test [2] it was 1.9 OD.

B2: TRL1218 (antibody, V domains shown)
VH: QVQLLESGADMVQPGRSLRLSCAASGFNFRTYAMHWVRQAPGKGLEWVAVMSHDGYTKYYSDSVRGQFTISRDNSKNTLYLQMNNLRPDDTAIYYCARGLTGLSVGFDYWGQGTLVTVSS
VL: DIVLTQSASVSGSPGQSITISCTGTSSDVGGYNYVSWYQQHPGKAPKLMIYDVTTRPSGVSDRFSGSKSGNTASLTISGLQAEDEADYYCSSYSSGSTPALFGGGTQLTVL
Regarding B2, the OD turned out to be 0.06 OD in test [1] and 0.04 OD in test [2].

B3: TRL1087 (antibody, V domains shown)
VH: QVQLLESGPGLVRPSDTLSLTCTFSADLSTNAYWTWIRQPPGKGLEWIGYMSHSGGRDYNPSFNRRVTISVDTSKNQVFLRLTSVTSADTAVYFCVREVGSYYDYWGQGILVTVSS
VL: DIEMTQSPSSLSASVGDRITITCRASQGISTWLAWYQQKPGKAPKSLIFSTSSLHSGVPSKFSGSGSGTDFTLTITNLQPEDFATYYCQQKWETPYSFGQGTKLDMIR
Regarding B3, the OD in test [1] and in test [2] was 0.06 OD throughout.

B4: TRL1232 (antibody, V domains shown)
VH: QVQLVESGAEVKKPGALVKVSCKASGYTFSGYYMHWVRQAPGQGLEWMGWINPKSGGTKYAQKFQGRVTMTRDTSISTAYMELSRLRSDDTAVYFCARGGPSNLERFLERLQPRYSYDDKYAMDVWGQGTTVTVSS
VL: DIVMTQSPGTLSLSPGARATLSCRASQSVSSIYLAWYQQKPGQAPRLLIFGASSRATGIPDRFSGSGSGTDFTLTISRLEPEDFAVYYCQQYGSSPYTFGQGTKLEIKR
Take B4: the OD in test [1] and in test [2] was 0.1 OD throughout.

B5: TRL1068 (antibody, V domains shown)
VH: QVQLVESGPGLVKPSETLSLTCRVSGDSNRPSYWSWIRQAPGKAMEWIGYVYDSGVTIYNPSLKGRVTISLDTSKTRFSLKLTSVIAADTAVYYCARERFDRTSYKSWWGQGTQVTVSS
VL: DIVLTQAPGTLSLSPGDRATLSCRASQRLGGTSLAWYQHRSGQAPRLILYGTSNRATDTPDRFSGSGSGTDFVLTISSLEPEDFAVYYCQQYGSPPYTFGQGTTLDIK
As for B5, the Kd (in general, the equilibrium constant for the complex coming apart) in test [3] came to 7 nM; in test [4] it was 350 nM.

B6: TRL1230 (antibody, V domains shown)
VH: QVQLVQSGGGLVKPGGSLRLSCGASGFNLSSYSMNWVRQAPGKGLEWVSSISSRSSYIYYADSVQGRFTISRDNAKNSLYLQMNSLRAEDTAIYYCARVSPSTYYYYGMDVWGQGTTVTVSS
VL: DIVLTQPSSVSVSPGQTARITCSGDELPKQYAYWYQQKPGQAPVLVIYKDNERPSGIPERFSGSSSGTTVTLTISGVQAEDEADYYCQSADSSGTYVVFGGGTKLTVL
B6: the OD in test [1] came out at 0.07 OD; in test [2] it was 0.06 OD.

B7: TRL1216 (antibody, V domains shown)
VH: QVQLVESGGGVVQPGGSLRVSCAASAFSFRDYGIHWVRQAPGKGLQWVAVISHDGGKKFYADSVRGRFTISRDNSENTLYLQMNSLRSDDTAVYYCARLVASCSGSTCTTQPAAFDIWGPGTLVTVSS
VL: DIMLTQPPSVSVSPGQTARITCSGDALPKKYTYWYQQKSGQAPVLLIYEDRKRPSEIPERFSAFTSWTTATLTITGAQVRDEADYYCYSTDISGDIGVFGGGTKLTVL
For the molecule B7, the OD in test [1] was determined as 0.4 OD; in test [2], 0.06 OD.

B8: TRL1070 (antibody, V domains shown)
VH: QVQLVQSGGTLVQPGGSLRLSCAASGFTFSYYSMSWVRQAPGKGLEWVANIKHDGTERNYVDSVKGRFTISRDNSEKSLYLQMNSLRAEDTAVYYCAKYYYGAGTNYPLKYWGQGTRVTVSS
VL: DILMTQSPSSLSASVGDRVTITCRASQGIRNDLGWYQQKPGKAPKLLIYAASSLQSGVPSRFSGSGSGTDFTLTISSLQPEDFATYYCLQDYNYPLTFGGGTKVEIKR
Turning to B8, the OD turned out to be 0.5 OD in test [1] and 0.11 OD in test [2].
